Source: patent publication US20250345413A1 (VIRAVAXX, published 2025)

Target: T1, human ACE2 protein (GenScript) (human, UniProt Q9BYF1 18-740)
T1 construct: also called angiotensin-converting enzyme 2; hACE2
Assay: ELISA, plate-bound ACE2, detection by anti-His antibody

T1 sequence (Q9BYF1 18-740 limits assumed): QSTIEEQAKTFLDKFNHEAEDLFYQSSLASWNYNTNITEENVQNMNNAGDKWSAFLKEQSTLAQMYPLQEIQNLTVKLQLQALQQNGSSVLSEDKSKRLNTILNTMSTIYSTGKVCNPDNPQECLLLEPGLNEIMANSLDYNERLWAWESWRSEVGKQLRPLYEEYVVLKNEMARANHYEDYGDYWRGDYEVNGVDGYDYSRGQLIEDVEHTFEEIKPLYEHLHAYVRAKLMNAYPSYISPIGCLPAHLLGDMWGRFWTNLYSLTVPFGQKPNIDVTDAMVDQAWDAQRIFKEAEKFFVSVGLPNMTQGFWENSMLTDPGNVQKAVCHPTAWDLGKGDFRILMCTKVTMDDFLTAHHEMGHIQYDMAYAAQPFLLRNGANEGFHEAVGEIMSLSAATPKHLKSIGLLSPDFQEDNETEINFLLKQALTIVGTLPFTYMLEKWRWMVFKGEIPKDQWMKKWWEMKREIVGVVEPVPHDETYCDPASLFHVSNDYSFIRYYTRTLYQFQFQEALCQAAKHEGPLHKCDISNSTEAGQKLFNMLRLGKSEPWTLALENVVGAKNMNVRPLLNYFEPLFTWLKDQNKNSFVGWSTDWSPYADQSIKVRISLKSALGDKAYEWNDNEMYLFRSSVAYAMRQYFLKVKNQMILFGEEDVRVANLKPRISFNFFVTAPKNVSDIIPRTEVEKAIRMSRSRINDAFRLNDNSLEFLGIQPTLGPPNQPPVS

B1: cysteine-containing, His-tagged recombinant Parietaria allergen, Par j 2 (other)
chain: EEACGKVVQDIMPCLHFVKGEEKEPSKECCSGTKKLSEEVKTTEQKREACKCIVRATKGISGIKNELVAEVPKKCDIKTTLPPITADFDCSKIQSTIFRGYY
notes: also called negative control protein
binding result: no binding
